± gives the uncertainty stated by the source.

Here are results for 53 substances from the supplement of paper PMC12042874.

This data set in a line: amyloid nucleation score (Sup35N fusion, yeast selection) (log enrichment); library NNK3; higher = more nucleation; inactive = no reads after selection. Summed up: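 Plasmid inserts were Illumina-sequenced at input and output from psi-negative yeast expressing Sup35N fused to peptides of 20 random codons. The yeast were induced with 100 μM copper sulfate for 24 hours and grown 7 days at 30°C on medium lacking adenine and uracil, and sequences with under 100 input reads were excluded. Nucleation score is the DiMSum log enrichment of output over input reads, centred on the mode score of non-aggregating sequences.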

For NINSTFQRQVLSDCLVQWYM, the amyloid nucleation score entry was “inactive”.

As to LSYVRCVRWWY, the amyloid nucleation score result is “inactive”.

For the substance FFLWVYLLKSFSS, the amyloid nucleation score entry was “inactive”.

As for AASPQARGCILSCNVSRNQT, the amyloid nucleation score result was “inactive”.

The substance LRVCTELRMVLDISYNVGNF returned an amyloid nucleation score of 0.68 ± 0.18.

Turning to EDKGYWNLQAIEIVIQYGGR, the amyloid nucleation score worked out at 0.225 ± 0.43.

For FTYTEMRLGIKFSTWRQ, the amyloid nucleation score amounted to 1.03 ± 0.14.

Regarding KQYLDLVAFIADGYRVSGDE, the amyloid nucleation score result was “inactive”.

On to VVTSRCLRKKLFLDLSVCIT, for which the amyloid nucleation score entry was “inactive”.

As for LYICTIVYYGQSNRYMFAGQ, the amyloid nucleation score result is “inactive”.

As for YSHSGIRIKRLEASEYTWPS, the amyloid nucleation score entry was “inactive”.

With TLKRWLNLDRSSYIRESIKR, the amyloid nucleation score result is “inactive”.

Take ALPREPESVLG: the amyloid nucleation score result was “inactive”.

The substance FGPAMCYSLIVQLTSVYRGG displayed an amyloid nucleation score of 1.99 ± 0.087.

As to LGLRHDICITDRINSGLRGS, the amyloid nucleation score entry is “inactive”.

Consider IKCMNTLTDCCGMV, for which the amyloid nucleation score result was “inactive”.

As to YNYGKGRWHALLDISKVEVK, the amyloid nucleation score result is “inactive”.

With KIYDVFSRFKYRMQSVYKQA, the amyloid nucleation score entry was “inactive”.

CEIVFQYVFNFFSPTTSVVC: the amyloid nucleation score was 1.54 ± 0.089.

As to VLCLVAGDYMNELIGGKGKV, the amyloid nucleation score entry was “inactive”.

For the substance TRAPVECNLCIGIEKDEVVR, the amyloid nucleation score entry was “inactive”.

For WSFMLFSVSYYNQGEAVLPA, the amyloid nucleation score entry was “inactive”.

For VDEYVLWVSYYPWWYRVNTV, the amyloid nucleation score entry is “inactive”.

Take CLGGHLTHLHL: the amyloid nucleation score result was “inactive”.

GEWLCVFFSWPSGSPIVPWE: the amyloid nucleation score result was “inactive”.

As for NACVNEWRPKCQVSWGGPSF, the amyloid nucleation score is -0.385 ± 0.93.

Consider RENSKFFLIRC, for which the amyloid nucleation score result is “inactive”.

The substance PFPFSNLLERV came in with an amyloid nucleation score of 0.364 ± 0.34.

MYYSSYR: the amyloid nucleation score entry is “inactive”.

With RYTNAYRQASLRV, the amyloid nucleation score result is “inactive”.

As for GSGLLE, the amyloid nucleation score entry is “inactive”.

As for DFSYRENYVPIDGIRLTVFW, the amyloid nucleation score result was “inactive”.

Turning to TIFVTTR, the amyloid nucleation score result is “inactive”.

On to WFAGGHGKESIINWHYCQYM, for which the amyloid nucleation score result is “inactive”.

On to HLYDPVFTKVAPRSSGGYGQ, for which the amyloid nucleation score result was “inactive”.

Consider LLTGFLSKVSGQS, for which the amyloid nucleation score entry was “inactive”.

Take TCVKMDRRSLAINALLSYYR: the amyloid nucleation score result is “inactive”.

For SGLKMCYLSTGEKSAHAGEV, the amyloid nucleation score entry is “inactive”.

In the case of FEIRLFISGQDQAHGCCPWY, the amyloid nucleation score result was “inactive”.

Consider FLETVSFPMKVWSL, for which the amyloid nucleation score entry was “inactive”.

For TNRFSRWCIRRRMSAVRYIG, the amyloid nucleation score result was “inactive”.

With GMADKVDTCLWLMFY, the amyloid nucleation score result is “inactive”.

Regarding SVLHVLYCVGSECVYVSSSR, the amyloid nucleation score entry was “inactive”.

Regarding SWCQGNCGMLLAHRSYKRAY, the amyloid nucleation score is -0.48 ± 0.55.

For FMFNRGAAFNHFTGHTCITY, the amyloid nucleation score result was “inactive”.

YEHRCCHSNIDIFGLQSRNV: the amyloid nucleation score entry is “inactive”.

For LLIVFLIFRMLRLAGASI, the amyloid nucleation score result is “inactive”.

In the case of LLLASVRVRFRHWPTYLRYF, the amyloid nucleation score result was “inactive”.

As to VTMFDLVSM, the amyloid nucleation score result is “inactive”.

Substance YVVFYHLAVALSLKMASKRI returned an amyloid nucleation score of -0.826 ± 1.9.

GWVIDRLYGDDMSSILEL: the amyloid nucleation score result was “inactive”.

With GSRYRWVTATTIMSCGYEQE, the amyloid nucleation score result is “inactive”.

Turning to DTVKKVYSYYMTLNYVEPLP, the amyloid nucleation score result was “inactive”.
